Experimental data from article PMC4756856 (Nucleic Acids Research, 2016).

Molecular target: the molecule itself
Experiment: SEC-MALS

B1: TyrRSΔE2–4′ (TyrRSΔE2–4 splice variant of human tyrosyl-tRNA synthetase without the flexible linker aa343–360) (natural protein, UniProt P54577 1-528, looked up)
chain: MGDAPSPEEKLHLITRNLQALDEEYLKVDAQFGGIDQRKIFTFAEKYLPALGYSKRVHLMNPMVPGLTGSKMSSSEEESKIDLLDRKEDVKKKLKKAFCEPGNVENNGVLSFIKHVLFPLKSEFVILRDEKWGGNKTYTAYVDLEKDFAAEVVHPGDLKNSVEVALNKLLDPIREKFNTPALKKLASAAYPEEVIPSRLDIRVGKIITVEKHPDADSLYVEKIDVGEAEPRTVVSGLVQFVPKEELQDRLVVVLCNLKPQKMRGVESQGMLLCASIEGINRQVEPLDPPAGSAPGEHVFVKGYEKGQPDEELKPKKKVFEKLQADFKISEECIAQWKQTNFMTKLGSISCKSLKGGNIS
stoichiometry N: 2
